Experimental data as given in patent US20040213833A1 (published 2004).
One block for each binder: values may come before it. Positions of bridges follow the written chain, without caps; N, C: chain ends. No end group written: not given here.

Columns and labels:
Test in all cases: cell-based or functional assay
[1] = target: cell surface-bound gelatinases (of HT1080 cells)
[2] = target: T1, MMP-2 (matrix metalloproteinase-2, gelatinase), purified enzyme (UniProt P08253 110-660, limits assumed)
T1 sequence (looked up): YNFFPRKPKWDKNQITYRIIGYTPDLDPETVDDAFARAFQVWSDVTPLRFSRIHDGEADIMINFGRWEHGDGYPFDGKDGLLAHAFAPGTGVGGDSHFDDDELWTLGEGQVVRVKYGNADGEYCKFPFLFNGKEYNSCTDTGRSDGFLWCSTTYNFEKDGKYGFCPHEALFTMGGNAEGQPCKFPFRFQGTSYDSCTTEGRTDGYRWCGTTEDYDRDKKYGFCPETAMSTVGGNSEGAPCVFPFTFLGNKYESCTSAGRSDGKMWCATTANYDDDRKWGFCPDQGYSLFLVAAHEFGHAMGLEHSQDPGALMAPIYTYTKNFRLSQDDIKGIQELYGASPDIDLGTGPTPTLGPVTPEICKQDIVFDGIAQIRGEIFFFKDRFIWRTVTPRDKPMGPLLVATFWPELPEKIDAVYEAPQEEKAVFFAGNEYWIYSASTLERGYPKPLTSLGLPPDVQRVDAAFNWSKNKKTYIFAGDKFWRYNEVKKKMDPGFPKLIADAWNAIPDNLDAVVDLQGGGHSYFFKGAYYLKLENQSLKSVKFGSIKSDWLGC

[3] = target: MMP-9 (matrix metalloproteinase-9, gelatinase), purified enzyme (UniProt P14780 107-707, limits assumed)
Chain of MMP-9 (matrix metalloproteinase-9, gelatinase), purified enzyme (P14780 107-707 limits assumed): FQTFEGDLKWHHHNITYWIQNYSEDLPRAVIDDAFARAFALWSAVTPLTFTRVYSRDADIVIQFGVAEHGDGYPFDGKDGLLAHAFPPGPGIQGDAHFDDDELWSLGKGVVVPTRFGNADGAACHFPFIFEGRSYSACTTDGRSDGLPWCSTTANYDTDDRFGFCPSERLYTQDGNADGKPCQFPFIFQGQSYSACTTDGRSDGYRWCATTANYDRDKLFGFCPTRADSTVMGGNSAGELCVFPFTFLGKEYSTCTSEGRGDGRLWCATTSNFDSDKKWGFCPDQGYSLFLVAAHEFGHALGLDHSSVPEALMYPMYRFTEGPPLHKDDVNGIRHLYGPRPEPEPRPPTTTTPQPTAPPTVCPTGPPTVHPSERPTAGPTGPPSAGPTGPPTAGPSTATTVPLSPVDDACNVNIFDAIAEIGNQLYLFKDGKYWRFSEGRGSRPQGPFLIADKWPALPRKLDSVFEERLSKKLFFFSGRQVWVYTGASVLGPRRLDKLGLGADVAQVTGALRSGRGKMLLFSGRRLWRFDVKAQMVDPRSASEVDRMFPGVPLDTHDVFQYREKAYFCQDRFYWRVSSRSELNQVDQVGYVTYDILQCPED

inhibition of MMP-2 activity, casein zymography (area digested), peptide at 85 uM [2]: ~70 % inhibition | IC50 of inhibition of MMP-9 activity, gelatinase assay with fluorogenic peptide substrate [3]: 8 µM
B2: CTT peptide CTTHWGFTLC (cyclic, free in solution) (peptide)
peptide: CTTHWGFTLC
modifications: disulfide 1-10

IC50 of inhibition of MMP-9 activity, gelatinase assay with fluorogenic peptide substrate [3]: 8 µM
B4: CTT peptide CTTHWGFTLC bound to POPC/POPE (80/20 mol/mol) liposomes (peptide)
peptide: CTTHWGFTLC
modifications: disulfide 1-10; also: adsorbed non-covalently to POPC/POPE liposomes

inhibition of MMP-2 activity, casein zymography (area digested), peptide at 85 uM [2]: 50 % inhibition
B5: CLP peptide CLPGHWGFPSC (peptide)
peptide: CLPGHWGFPSC
modifications: disulfide 1-11

Further lines, the binder ahead of its results:

B1: CTT peptide … bound to POPC/POPE (80/20 mol/mol) liposomes (peptide)
peptide: CTTHWGFTLC
modifications: disulfide 1-10; also: adsorbed non-covalently to POPC/POPE liposomes
transfer of rhodamine B liposomes with CTT into HT1080 cells after preincubation with TIMP-2 (10 µg/ml) [1]: 50 % inhibition

B3: STT peptide … (linear analog of CTT) (peptide)
peptide: STTHWGFTLC
inhibition of MMP-2 activity, casein zymography (area digested), peptide at 85 uM [2]: ~30 % inhibition
